The series in a line: yeast display, Sf9 membrane polyspecificity reagent, FACS + sequencing; frameworks hold sequencing errors. A digest of the protocol: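 A nanobody's polyreactivity label depends on the gate it was sorted from. Yeast display cells were stained with 10% biotinylated, detergent-solubilized Sf9 membrane reagent for 1 hour at 4 °C, enriched on streptavidin microbeads and sorted by FACS. The low and high (top ~1%) gates were set on anti-HA fluorescence for expression and streptavidin fluorescence for reagent binding.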
Take “QVQLVESGGGLVQAGGSLRLSCAASGRISFRYAMGWYRQAPGKERELVAAINRGGITNYADSVKGRFTISRDNAKNTVYLQMNSLKTEDTAVYYCAARYASPRYKSKMEYWGQGTQVTVSS”: the “polyreactivity (PSR sort gate)” value is “high polyreactivity”.

Turning to “QVQLVESGGGLVQAGGSLRLSCAASGSIFLNYAMGWYRQAPGKERELVAAISYRVGRTYYADSVKGRFTISRDNAKNTVYLQMNSLKPEDTAVYYCAADSRSPGHDYWGQGTQVTVSS”, the “polyreactivity (PSR sort gate)” value is “high polyreactivity”.

“QVQLVESGGGLVQAGGSLRLSCAASGLTFYLYAMGWYRQAPGKERELVAAISSSGSSTYYADSVKGRFTISRDNAKHTVYLQMNSLKPEDTAVYYCAAVASRGWGRYGYWGQGTQVTVSS”: the “polyreactivity (PSR sort gate)” value is “high polyreactivity”.

Turning to “QVQLVESGGGLVQAGGSLRLSCAASGFTFDRNAMGWYRQAPGKERGLVAAISSSGGRTYYADSVKGRFTISRDNAKNTVYLQMNSLKPEDTAVYYCAATSSYSYDYWGQGTQVTVSS”, the “polyreactivity (PSR sort gate)” value is listed as “high polyreactivity”.

In the case of “QVQLVESGGGLVQAGGSLRLSCAASGSIFRIYAMGGYRQAPGKERELVAAITGRGGSTYYADSVKGRFTISRDNAKNTVYLQRNSLKPEDTAVYYCAAEERYAYRYDYWGQATQVTVSS”, the “polyreactivity (PSR sort gate)” value is recorded as “high polyreactivity”.

As for “QVQLVESGGGLVQAGGSLRLSCAAYGFTFKYYVMGWYRQAPGKERELVASISKRGGSTRYADSVKGRFTISRDNAKNTVYLQMNSLKPEDTAVYYCAAAFVRPPPYVGYSRFYYWGQGTQVTVSS”, the “polyreactivity (PSR sort gate)” value was “high polyreactivity”.

Turning to “QVQLVESGGGLVQAGGSLRLSCAASGRISDVYAMGWYRQAPGKERELVAVISWRGGTTRYADSVKGRFTISRDNAKNTVYLQMNSLKAEDTAVFYCAAKTVLWGQGTQVTVSS”, the “polyreactivity (PSR sort gate)” value is “high polyreactivity”.

On to “QVQLVESGVVLVQAGGSLRLSCAASGRIFRYYVMGWYRQAPGKERELVAAITNDGGNTNYADSVKGRFTISRDNEKNTVYLQMNSLKPEDTAVYYCNADRTHDRNPYTYATFDYWGQGTQVTVSS”, for which the “polyreactivity (PSR sort gate)” value was “low polyreactivity”.

“QVQLVESGGCLFQAGGSLRLSCAASGFIFGTYAIGWYRQAPGKERELVAAISVGRGSTYYADSVKGRFTISRDNAKNTVYLQMNSLKPEDTAVYYCAAVQLYQKHQITYVAHEYWGHGTQVTVSS”: the “polyreactivity (PSR sort gate)” value is “low polyreactivity”.

On to “QVQLEESGGGLVQAGGSLRLSCAASGSTLIDNVMVWYRQAPGKERELVASITSSDGTTYADSVKGRITISRDNAKNTVYLQMNSLIPEDTAVYYCAARPWYGTYNYWGQGTQVTVSS”, for which the “polyreactivity (PSR sort gate)” value is listed as “low polyreactivity”.

“QVQIVESGGGLVQEGGSLRLSFAASGSTFYYYPMGWYRQAPGKERELVAAITSGDTTNYADSVKGRFTISRDNAKNTVYLQMNSLKPEDTAVYYCAVDLNTTAFYPVAATYLDDYWGQGTQVTVSS”: the “polyreactivity (PSR sort gate)” value is “low polyreactivity”.

Turning to “QVQLVESGGGLVQAGGSLRLSCAASGFTFSRNVMGWYRQAPGKERELVADITLSGASTYYADSVKGRFTISRDNAKNTVYLQMNSLKPEDTAVYYCAAEPYHWRWGWRHDYWGQGTQVTVSS”, the “polyreactivity (PSR sort gate)” value is “low polyreactivity”.

Take “QVQLVESGGGLVQAGGSLRLSCAASGSIFVLYTMGWYRQAPGKERELVAAISYSGGSTNYADSVKGRFTISRDNAKNTVYLQMNSLKPEDTAVYYCAARASKGHKYWGQGTQVTVSS”: the “polyreactivity (PSR sort gate)” value is listed as “high polyreactivity”.

Take “QVQLVESGGGLVQAGGSLRLSCAASGSIFDENAMGWYRQAPGKERELVAAITGSGVRTYYADSVKGRFTISRDNAKNTVYLQMNSLKPEDTAVYYCNRVKSGSYKFGYWGQGTQVTVSS”: the “polyreactivity (PSR sort gate)” value was “high polyreactivity”.

Consider “QVQLVESGGGIVQAGGSLRLSCAASGSIFYGYAMGWYRQAPGNERELVAAISSGGRTKYADSVKGRFTISRDNAKNTVYLQMNSLKPEDTAVYYCNVSYLVYRWNFGWSMDYWGQGTQVTVSP”, for which the “polyreactivity (PSR sort gate)” value was “low polyreactivity”.

“QVQLVESVGGLVQAGGSLRLSCAASGNNFDIYDMGWYRQAPGKERELVAAISSGGSTYYADSVKGRFTISRDTAKNTVYFQMNSLKPEDSAVYYCAESRVGYYRYEYWGQGTQVTVSS”: the “polyreactivity (PSR sort gate)” value is recorded as “low polyreactivity”.

Take “QVQLVESGGGLVQAGGRLRLSCAASGFIFYDYAMGWYRQAPGKERELVAVITSGGSTYYADSVKGRFTISRDNAKNTVYLQMNSLKPEDTAVYYCNADWVFTWYDYPNDKYDYWGQGTQVTVSS”: the “polyreactivity (PSR sort gate)” value is listed as “low polyreactivity”.

On to “QVQLVQSGGGLVQAGGSLRLSCAASGRTFGTYAMGWYRQAPGKEREFVAVITNRGGRTYYADSVKGRFTISRDNAKNTVYLQMNSLKPEDTAVYYCTAVGRGWAFDYWGQGTQVTVSS”, for which the “polyreactivity (PSR sort gate)” value is “high polyreactivity”.

In the case of “QVQLVESGRGLVQARGSLRLSCAASGFIFYRYAMGWYRQAPGKEREFVAANTSTGTTYYADSVKGRFTISRDNAKNTVYLQMNSLKPEDTAVYYCNAGFRYKYQSSRVDYWGQGTQVTVSS”, the “polyreactivity (PSR sort gate)” value is listed as “high polyreactivity”.

With “QVQLVESGGGLVQAGGSLRLSCAASGRIFRRYARGWYRQAPGKERELVATISRGGSNTSYADSVKGRFTISRDNAKNTVYLQMNSLKPEDTAVYYCAKGSVRYYVGYDYWGQGTQVSVSS”, the “polyreactivity (PSR sort gate)” value is reported as “high polyreactivity”.

In the case of “QVQLVESGGGLVQAGGSLRLSCAASGLTFGTNAMGWYRQAPGKERELVAAISTSSGSTYYADSVKGRFTISRDNAKKTVYLQMNSLKQEDTAVYYCAAVTVTKLSYYRYYYWGQGTQVTVSS”, the “polyreactivity (PSR sort gate)” value was “low polyreactivity”.

Regarding “QVQLVESGGGLVQAGVSLRLSCAASGLTFPGYAMGWYRQATGKQRELVAAISRRGGSTYYADSVKGRFTISRDNEKNTVYLKMNSLKTEDTAVYYCNAVIRRYFVPSSYDYWGQGTQVTVSS”, the “polyreactivity (PSR sort gate)” value is reported as “high polyreactivity”.

As for “QVQLVESGGGLVQAGGSVRLSCAASGSIFTGYAMGWYRQAPGKERELVAAISRSSGSTYYADSVKGRFTISRDNAKNTVYLQMNSLKPEDTAVYYCNAYSKYRSGRLYWMGYWGQGTQVTVSS”, the “polyreactivity (PSR sort gate)” value is recorded as “high polyreactivity”.

Turning to “QVQLVESGGGLVQAGGSLRLSCAASGRTFFYYTMGWYRQAPGKEREFVASISWSGASTYYADSVKGRFTISRDNAKNTVYLQMNSLKPEDSAVYYCAAPVTGGAYGYDYWGQGTQVTVSS”, the “polyreactivity (PSR sort gate)” value is given as “high polyreactivity”.

As to “QVQLVESGGGLDQAGGSLRLSCAASGSIFYHNAMGWYRQAPGKERELVAAITGSGGSTYYADSVKWRFTISRDNAKNTFYLQMNSLKPEDTAVYYCAADYDYQYRYYYWGQGTQVTVSS”, the “polyreactivity (PSR sort gate)” value is given as “low polyreactivity”.

Take “QVQLVESGGGLVQAGGSLRLSCAASGFIFVWYAMGWYRQAPGKEREMVAAISFSGSSTYYADSVKGRFTITRDNAKNTVYLQMNSLKPEDTAVYYCAKRIAKYIPRYKFDYWGQGTQVTVSS”: the “polyreactivity (PSR sort gate)” value is recorded as “high polyreactivity”.

On to “QVQLVESAGGLVQAGGSLRLSCAASGRIFRSNAMGWYRQAPGQERELVAAINNRDTSTYADSVKGRFTISRDNAKNTVYLQMNSLKPEDTAVFYCAARYQYYSTYGVTLDYWGQGSQVTVSS”, for which the “polyreactivity (PSR sort gate)” value is “low polyreactivity”.

Take “QVQLVESGGGLVQAGGSLRLSCAASGSIFVSNTMGWYRQAPGKEREMVASIRETAGSTNYADSVKGRFTISRDYAKNTFYLQMNSLKPEDTAVYYCAARYSPTRYHYGYWGQGTQVTVSS”: the “polyreactivity (PSR sort gate)” value is listed as “low polyreactivity”.

In the case of “QVQLVESGGGLVQAGGSLRLSCAASGRIFQWYAMGWYRQAPGKERELVAAIRNGGTTNYADSVKGRFTISRDNAKNTVYLQMNSLKPEDTAVYYCNADKYRTWVFQPRYPGGYWGQGTQVTVSS”, the “polyreactivity (PSR sort gate)” value was “low polyreactivity”.

“QVQLVESCGGLVQAGGSLRLSCAASGSIFVGNAMGWYRQAPGKERELVAAIDASGGNTYYADSVKGRFTISRDNAKNTVYLQMNSLKPEDTAVYYCNKYGYWWWGTRESDYWGQGTQVTVSS”: the “polyreactivity (PSR sort gate)” value is given as “high polyreactivity”.

Take “QVQLQESGGGLEKACGSLRLSCAASVNISPRDAMCWYRQAPGEERDLVASNAYSAITYYADGVKGRYTISRDNAKNTVYLHMNSLKPEDTEVYYCAVYQFPYPVFPAYCGQGTQVTVSS”: the “polyreactivity (PSR sort gate)” value is “low polyreactivity”.

On to “QVQLVESGGGLVQAGGSLRLSCAASGSTLARYAMGWYRQAPGKERELVAAISWIGGSTYYADSVKGRFTISRDNAKNTVYLQMNSLKPEDTAVYFCAKDTYPWYIRNRYDYWGQGSQVTVSS”, for which the “polyreactivity (PSR sort gate)” value is “high polyreactivity”.

In the case of “QVQLVESGGGLVQAGGSLRLSCAASGITFKLYAIGWYRQAPGKERELVATINRGSSTYYADSVKGRFTISRDNAKNTVYLQMNSLKPEDTAVYYCAADNVRKWHKMDYWGQGTQVTVSS”, the “polyreactivity (PSR sort gate)” value is on record as “high polyreactivity”.

In the case of “QVQLVESGGGLVQAGGSLRLSCAASGFIFRYYSMAWYRQAPGKERELVAAISGSGGGTYYADSVKGRFTISRDYAKNTVYLQMNSLKPEDTAVYYCNARKVYSRRYKYDYWGQGSQVTVSS”, the “polyreactivity (PSR sort gate)” value is reported as “high polyreactivity”.

Consider “QVQLVESGGGLVQAGGSLRLSCAASGRTFLDNAMGWYRQAPGKERELVAAISYSGGSTYYADSVKGRFTISRDNAKNTVYLQMNSLKPEDTAVYYCAADPRQYDYYLLAYDYWGQGTQVTVSS”, for which the “polyreactivity (PSR sort gate)” value was “low polyreactivity”.

For the sequence “QVQLVESGGGLVQAGGSLRLSCAASGFTFAGYAMGWYRQAPGKDRELVAAISWSGGRTYYADSVKGRFTISRDNAKNTVYLQMNSLKPEDTAVYYCAKLTLSSRWYYIYDYWGQGTQVTVSS”, the “polyreactivity (PSR sort gate)” value is recorded as “high polyreactivity”.

“QVQLVESGGGLVQAGGSLRLSCAASGSIFGGSGMGWYRQAPGKERELVAAITSGSSTYYADSVKGRFTISRDNAKNTVYLQMNSLKPEDTAVYYCAARPYPHSAYEGDYWGRGTQVTVSS”: the “polyreactivity (PSR sort gate)” value is “low polyreactivity”.

Take “QVQLVESGGGLVQAGGSLRLSCAASGMIFSDYSMGWYRQATGKERELVATITRSVRTSYADSVKGRFTISSDNAKNTVYLQMNSLKPEDTAVYYCNADVVGAVIAFDYWGQGTQVTVSS”: the “polyreactivity (PSR sort gate)” value is listed as “low polyreactivity”.

“QVQLVESGGGLVQAGGSLRLSCAASGGIFYAYAMGWYRQAPGKERELVAAISISDGDTYYADSVKGRFTISRDNAKNTVYLQMNSLKPEDTAVYYCAAEQEYDLREYDYWGQGTQVTVSS”: the “polyreactivity (PSR sort gate)” value is recorded as “high polyreactivity”.

Regarding “QVQLVESGGGLVQAGGSLRLSCAASGRTFADYAMGWNRQAPGKEREFVAAITYSGGSTYYADSVKGRFTISRDNAKNTVYLQMNSLKPEDTAVYYCNARPGSSYWYDAQWGEYGYWGQGTQVTVSS”, the “polyreactivity (PSR sort gate)” value was “high polyreactivity”.

For the sequence “QVQLVESGGGLVQAGGSLRLSCAASGSTFRVNAMAWYRHAPGKERELVADITNGGSTYYADSVKGRFTISRDNAKNTVYLQMNSLKPEDTAVYYCNARPSYLRFKWYSYDYWGQGTQVTVSS”, the “polyreactivity (PSR sort gate)” value is recorded as “high polyreactivity”.

(Values after the nanobody polyreactivity screen of Harvey et al. (2022).)
